Data published in the DeepSol protein solubility set.

Assay: soluble on expression in E. coli; label from the status in PepcDB or PDB records

Row | Sequence | soluble on expression in E. coli
1 | MAHHHHHHMTAKSPCLDILPFIFREEQISNRIQTFPTETMKKAYLELKGYFEQYKIYAEKLINFSGSMNDENQRKEKLIIKLRCEYYAVIFSQASKLLHEYINFRNRLILELAINVNGLINSIHPNIIQRLNEDEQKELQKYCENIRSERTRSKLQNKFTVCFLNDLIIEDLNYEGVQKDMKGRNVFYSAGLKVSVFEDKALDLQKCEWAKILRD | not soluble
2 | MAVSAYFHIPFCAHICHYCDFNKVFAAGQPIDDYLRAMDKEMAWTAAEFGSQLKTLFIGGGTPTVLEPAQLGCLLASIHRHFQFDPQTAEFTVEANPDGLTKEKLAILRDAGVNRLSLGVQTFDDQLLQTIGRTHRRGDVIRAVALAREVGFQNISIDVMYGLPGQTLEQFTADLEAAFSLHVPHLSAYSLILEPRTIFYNEWRKGRLRLPGEEMEAEMYEAAMEQMAAAGYRQYEISNYALPGFESRHNLTYWNNEEYYGIGAGAHSYIDGVRRANIGPIRHYISAIERGQWPHRDVRRLTTREQMEEEMFLGLRKTEGVSKACFRQKFGRDLHDIFGAAIRREIENGRLEETETHIRLTKRGKLLGNEVFAAFLGEM | not soluble
3 | MLGGDWTDGTMTDFKWRHFQGDVILWAVRWYCRYPISYRDLEEMLAERGISVDHTTIYRWVQCYAPEMEKRLRWFWRRGFDPSWRLDETYVKVRGKWTYLYRAVDKRGDTIDFYLSPTRSAKAAKRFLGKALRGLKHWEKPATLNTDKAPSYGAAITELKREGKLDRETAHRQVKYLNNVVEADHGKLKILIKPVRGFKSIPTAYATIKGFEVMRALRKGQARPWCLQPGIRGEVRLVERAFGIGPSALTEAMGMLNHHFAAAA | not soluble
4 | MAHHHHHHMFAIRCPASMLWHPSVHHSLLLLRALEQPHTLLLDTHTASRGRLSVPLLSECAREVRIQTPPGHHEFDSPAGASTERSVLLYRAEDLLHIVNRPLSAGHDLGAACPTQSGVFASLLEYLEASTVSSHVISAIDALLVSLNTGDMETMRQTHACLVELIERLEASITDESLSEAHRTDQKEPLSTWPLFCTLQFLIEEGGMLTSAFPRTNKAYTRLCHSSKAVALHRRLVQRTVEQLLDVGSSANADVSQGARVEMNYPAKGFLREVQRHLASYNRSMEERTTDGVSGEKGPLNSRASGGRLGIQAVQARLPWTLQARPLRKG | soluble
5 | MSAQRIQKVDILRYDPANDAEPHMQRFEVPFDETMSVLDAIGYVKDHLDKDLSYRWSCRMAICGSCGIMVNGVPKLACKSFLRDYPEGVKIEPLANFPIEKDLIVDMTPFIERLEAIKPYIIGNDRKPEDGTNLQTPEQMARYKQFAGCINCGLCYAACPQFGLNPEFLGPAALTLAHRYNLDSRDNGKAERMKLINGDNGAWGCTFVGYCSEVCPKHVDPAAAVNQGKVESSLDFVIAMLNPDGSPKKVEA | not soluble
6 | MFPEILNNEKLRLENIKKIYESSKSGYESAKQLYEQQVNNPEVSDEQKSENLEKLKESRGDLDNLQKKIVELQAKIENLSKLGGQQGNPFKKLF | not soluble
7 | MGSDKIHHHHHHMGLAFEHVTLGQRVLFGTGTAAPSLASEVARLGARRVMVITSNRARETAYRIAADVEVALWHHDVAMHVPIETARKARAAAGEHGIDLLVCVGGGSTTGLAKAIAMTLRLPIIAVPTTYAGSEATNVWGLTEASRKTTGVDDAVLPVTVIYDAALTLALPVAMSVASGLNGIAHCIDSMWAPGADPINAALGAEGIRALSHGLPLIAEDPAGTEGREQALYGAYLSAVAFASAGSGLHHKICHVLGGAFNLPHAQVHATVLPYVLAFNAPYASDSEARIAAAFGTADALTGLQELRNRLDAPKALSDYGLTADGAAEAAAVVQPTVPASNPRPVTTENLTRLLQAALSGEDPRCLLEH | not soluble
8 | MSLKKYLGIIVDAVSRRQFKGEITVENGKILRVEEKEHDHERYILPGLVDAHVHIESSMTVPSVFARMAVAKGTVAVVSDPHEIANVMGEEGIDFMLGDSKRSPLKVFFGVPSCVPATPFESAGSVLDAEAVDRLLAREDLYYLSEMMNFPGVVLGFPDVMAKLESAKKCGKVIDGHAPGLRGADLETYIGVGISTDHESFTYEEAVEKIKLGMKILIREGSSARNFETLYSLIDEYPEAVMLCTDDSHPDTLIYEGHIDKLIRRGQEKGLDIFNLIRAAVINPVEHYGLNVGLLREGDPADFITVDDLKSFNVLSTFIDGECVYENGEGHHHHHH | soluble
